In patent US20140017269A1 (CHILDREN S HOSPITAL MEDICAL CENTER, published 2014):

Target: the molecule itself
Assay: method not given; self-association

B1: NoV P^--M2e protein (other)
chain: SRTKPFTVPILTVEEMSNSRFPIPLEKLYTGPSSAFVVQPQNGRCTTDGVLLGTTQLSAVNICTFRGDVTHIAGSHDYIMNLASQNWNNYDPTEEIPAPLGTPDFVGKIQGMLTQTTREDGSTRAHKATVSTGTVHFTPKLGSVQYTTSSLLTEVETPIRNEWGCRCNDSSDIDILQTGQNTKFTPVGVIQDGNNHQNEPQQWVLPNYSGRTGHNVHLAPAVAPTFPGEQLLFFRSTMPGCSGYPNMNLDCLLPQEWVQHFYQEAAPAQSDVALLRFVNPDTGRVLFECKLHKSGYVTVAHTGPHDLVIPPNGYFRFDSWVNQFYTLAPMGNGAGR
notes: also called NoV P^--M2e dimer
binding result: binds
